B1: wild type AcrB (Escherichia coli multidrug transporter AcrB) [E. coli] / itself (parent)
chain: MPNFFIDRPIFAWVIAIIIMLAGGLAILKLPVAQYPTIAPPAVTISASYPGADAKTVQDTVTQVIEQNMNGIDNLMYMSSNSDSTGTVQITLTFESGTDADIAQVQVQNKLQLAMPLLPQEVQQQGVSVEKSSSSFLMVVGVINTDGTMTQEDISDYVAANMKDAISRTSGVGDVQLFGSQYAMRIWMNPNELNKFQLTPVDVITAIKAQNAQVAAGQLGGTPPVKGQQLNASIIAQTRLTSTEEFGKILLKVNQDGSRVLLRDVAKIELGGENYDIIAEFNGQPASGLGIKLATGANALDTAAAIRAELAKMEPFFPSGLKIVYPYDTTPFVKISIHEVVKTLVEAIILVFLVMYLFLQNFRATLIPTIAVPVVLLGTFAVLAAFGFSINTLTMFGMVLAIGLLVDDAIVVVENVERVMAEEGLPPKEATRKSMGQIQGALVGIAMVLSAVFVPMAFFGGSTGAIYRQFSITIVSAMALSVLVALILTPALCATMLKPIAKGDHGEGKKGFFGWFNRMFEKSTHHYTDSVGGILRSTGRYLVLYLIIVVGMAYLFVRLPSSFLPDEDQGVFMTMVQLPAGATQERTQKVLNEVTHYYLTKEKNNVESVFAVNGFGFAGRGQNTGIAFVSLKDWADRPGEENKVEAITMRATRAFSQIKDAMVFAFNLPAIVELGTATGFDFELIDQAGLGHEKLTQARNQLLAEAAKHPDMLTSVRPNGLEDTPQFKIDIDQEKAQALGVSINDINTTLGAAWGGSYVNDFIDRGRVKKVYVMSEAKYRMLPDDIGDWYVRAADGQMVPFSAFSSSRWEYGSPRLERYNGLPSMEILGQAAPGKSTGEAMELMEQLASKLPTGVGYDWTGMSYQERLSGNQAPSLYAISLIVVFLCLAALYESWSIPFSVMLVVPLGVIGALLAATFRGLTNDVYFQVGLLTTIGLSAKNAILIVEFAKDLMDKEGKGLIEATLDAVRMRLRPILMTSLAFILGVMPLVISTGAGSGAQNAVGTGVMGGMVTATVLAIFFVPVFFVVVRRRFSRKNEDIEHSHTVDHH

The experiment covers variants of B1. Nature of the experiment: BN-PAGE. The following applies: with itself; read off a plot.
In the case of chain 1 Q737L P223G, the screen value stood at 0.075.

Turning to chain 1 P223G, the screen value stood at 0.26.

Regarding chain 1 A209V P223G, the screen value is 0.4.

Turning to chain 1 D256N P223G, the screen value turned out to be 0.41.

As for chain 1 E810K P223G, the screen value worked out at 0.11.

As for chain 1 P800S P223G, the screen value amounted to 0.11.

In the case of chain 1 D788K P223G, the screen value was found to be 0.15.

Regarding chain 1 M662I P223G, the screen value amounted to 0.19.

For the variant chain 1 G257V P223G, the screen value amounted to 0.15.

Take chain 1 T199M P223G: the screen value was 0.7.

For the origin of these results see article PMC4303003.
